B1: IGFBP-2: Purified rat Insulin-like Growth Factor Binding Protein 2 (protein, UniProt P12843 35-304, looked up)
Insulin-like growth …: EVLFRCPPCTPERLAACGPPPDAPCAELVREPGCGCCSVCARQEGEACGVYIPRCAQTLRCYPNPGSELPLKALVTGAGTCEKRRVGATPQQVADSEDDHSEGGLVENHVDGTMNMLGGSSAGRKPPKSGMKELAVFREKVNEQHRQMGKGAKHLSLEEPKKLRPPPARTPCQQELDQVLERISTMRLPDDRGPLEHLYSLHIPNCDKHGLYNLKQCKMSLNGQRGECWCVNPNTGKPIQGAPTIRGDPECHLFYNEQQENDGAHAQRVQ
B2: IGFBP-1: Purified rat Insulin-like Growth Factor Binding Protein 1 (protein, UniProt P21743 26-272, looked up)
Insulin-like growth …: APQPWHCAPCTAERLELCPPVPASCPEISRPAGCGCCPTCALPLGAACGVATARCAQGLSCRALPGEPRPLHALTRGQGACVLEPAAPATSSLSGSQHEEAKAAVASEDELAESPEMTEEQLLDSFHLMAPSREDQPILWNAISTYSSMRAREITDLKKWKEPCQRELYKVLERLAAAQQKAGDEIYKFYLPNCNKNGFYHSKQCETSLDGEAGLCWCVYPWSGKKIPGSLETRGDPNCHQYFNVQN

System: TGF-β1 activation
Assay: Macrophage activation assay (IC-21 macrophages, LPS, fetal fibroblast conditioned media, ELISA)
Format: cell-based, mouse
Experimental: Cultured macrophages were lifted from the dish with 3 ml of PBS. The PBS was balanced with 15 ml of RPMI-1640 containing 10% FBS. The cells were counted and then seeded in 100 mm plates at 1×10^6 cells/dish. When the cultured macrophages reached approximately 70% confluency (2-3 days) they were washed with PBS and RPMI-1640 medium containing 5% FBS and 10 ng/ml LPS was applied (FIG. 1). After 24 h of activation with LPS the cells were washed gently with PBS. At this point conditioned medium from confluent fetal dermal fibroblasts was collected and 5 ml was distributed into each dish containing macrophages. The cells were incubated for an additional 24 h, the media were collected, spun down at 600×g for 10 min and stored at 4° C. before TGF-β1 evaluation by ELISA. Each condition was done in duplicate. The cells, washed with PBS, were harvested for total RNA extraction.
Fetal dermal fibroblasts were seeded in 100 mm dishes at 1×10^6 cell/dish. The cells were grown to confluency (2-3 days). The cultures were washed with PBS and fresh medium, either DMEM supplemented with 10% FBS or AIM-V medium (a serum free medium) for serum-free conditions, was applied for 24 h (FIG. 1). The medium was collected and combined in order to obtain a homogenous pool of latent TGF-β1. The collection of the medium was done just prior to application in the macrophage assay. […]

Row | Molecule | effect on IGF-II-mediated inhibition of TGF-β1 activation, in words
1 | B1 | no effect on IGF-II action
2 | B2 | able to reverse this inhibition

Reference: patent US6750028B1, “Anti-fibrotic agent assay” (Ethicon, Inc, priority 1996, dated 2004)
